Reference: publication PMC2894445

Assays:
[1] = biological target: Nup188 (Xenopus laevis (endogenous in Xenopus egg cytosol)); experiment: co-IP
[2] = biological target: Nup205 (Xenopus laevis (endogenous in Xenopus egg cytosol)); experiment: co-IP

percent of Nup93 co-immunoprecipitated [1]: 45%
percent of Nup93 co-immunoprecipitated [2]: 45%
B1: Nup93 (natural protein)
chain: MDGEGFGELLQQAEQLAAETEGVTELPHVERNLQEIQQAGERLRSKTMTRTSQESANVKASVLLGSRGLDISHISQRLESLSAATTFEPLEPVKDTDIQGFLKNEKDNALLSAIEESRKRTFVMAEEYHRESMLVEWEQVKQRVLHTLLASGEDALDFTQESETSYISESGAPGRSSLDNVEMAYARQMYMYNEKVVSGHLQPSLVDLCTEAAERLDDKNVSDLWVMVKQMTDVPLIPASDTLKSRCSGQMQMAFVRQALNYLEQSYKNYTLISVFANLQQAQLGGVPGTYNLVRSFLNIRLPTPIPGLQDGEIEGYPVWALIYYCMRCGDLMAAQQVVNRAQHQLGDFKNCFQEYIHNKDRRLSPTTENKLRLHYRRAVRASTDPYKRAVYCIIGRCDVSDNHSEVADKTEDYLWLKLSQVCFEDEANSSPQDRLTLPQFQKQLFEDYGESHFAVNQQPYLYFQVLFLTAQFEAAIAFLFRLERTRCHAVHVALALFELKLLLKSTGQSAQLLSQEPGEPQGVRRLNFIRLLMLYTRKFEPTDPREALQYFYFLRNEKDNQGESMFLRCVSELVIESREFDMLLGKLEKDGSRKPGAIDKFTRDTKTIINKVASVAENKGLFEEAAKLYDLAKNPDKVLELTNKLLSPVVSQISAPQSNRERLKNMALAIAERYKSQGVSAEKSINSTFYLLLDLITFFDEYHAGHIDLSFDVIERLKLVPLSQDSVEERVAAFRNFSDEIRHNLSEILLATMNILFTQYKRLKGSGPTTLGRPQRVQEDKDSVLRSQARALITFAGMIPYRMSGDTNARLVQMEVLMN
